In publication PMC8298264, “Function of cofactor Akirin2 in the regulation of gene expression in model human neutrophil-like HL60 cells” (Bioscience Reports, 2021):

B1: sp¦Q13637¦RAB32_HUMAN (protein, UniProt Q13637 2-225, looked up)
Ras-related protein Rab-32: AGGGAGDPGLGAAAAPAPETREHLFKVLVIGELGVGKTSIIKRYVHQLFSQHYRATIGVDFALKVLNWDSRTLVRLQLWDIAGQERFGNMTRVYYKEAVGAFVVFDISRSSTFEAVLKWKSDLDSKVHLPNGSPIPAVLLANKCDQNKDSSQSPSQVDQFCKEHGFAGWFETSAKDNINIEEAARFLVEKILVNHQSFPNEENDVDKIKLDQETLRAENKSQCC
B2: sp¦P41252¦SYIC_HUMAN (protein, UniProt P41252 1-1262, looked up)
Isoleucine--tRNA ligase, …: MLQQVPENINFPAEEEKILEFWTEFNCFQECLKQSKHKPKFTFYDGPPFATGLPHYGHILAGTIKDIVTRYAHQSGFHVDRRFGWDCHGLPVEYEIDKTLGIRGPEDVAKMGITEYNNQCRAIVMRYSAEWKSTVSRLGRWIDFDNDYKTLYPQFMESVWWVFKQLYDKGLVYRGVKVMPFSTACNTPLSNFESHQNYKDVQDPSVFVTFPLEEDETVSLVAWTTTPWTLPSNLAVCVNPEMQYVKIKDVARGRLLILMEARLSALYKLESDYEILERFPGAYLKGKKYRPLFDYFLKCKENGAFTVLVDNYVKEEEGTGVVHQAPYFGAEDYRVCMDFNIIRKDSLPVCPVDASGCFTTEVTDFAGQYVKDADKSIIRTLKEQGRLLVATTFTHSYPFCWRSDTPLIYKAVPSWFVRVENMVDQLLRNNDLCYWVPELVREKRFGNWLKDARDWTISRNRYWGTPIPLWVSDDFEEVVCIGSVAELEELSGAKISDLHRESVDHLTIPSRCGKGSLHRISEVFDCWFESGSMPYAQVHYPFENKREFEDAFPADFIAEGIDQTRGWFYTLLVLATALFGQPPFKNVIVNGLVLASDGQKMSKRKKNYPDPVSIIQKYGADALRLYLINSPVVRAENLRFKEEGVRDVLKDVLLPWYNAYRFLIQNVLRLQKEEEIEFLYNENTVRESPNITDRWILSFMQSLIGFFETEMAAYRLYTVVPRLVKFVDILTNWYVRMNRRRLKGENGMEDCVMALETLFSVLLSLCRLMAPYTPFLTELMYQNLKVLIDPVSVQDKDTLSIHYLMLPRVREELIDKKTESAVSQMQSVIELGRVIRDRKTIPIKYPLKEIVVIHQDPEALKDIKSLEKYIIEELNVRKVTLSTDKNKYGIRLRAEPDHMVLGKRLKGAFKAVMTSIKQLSSEELEQFQKTGTIVVEGHELHDEDIRLMYTFDQATGGTAQFEAHSDAQALVLLDVTPDQSMVDEGMAREVINRIQKLRKKCNLVPTDEITVYYKAKSEGTYLNSVIESHTEFIFTTIKAPLKPYPVSPSDKVLIQEKTQLKGSELEITLTRGSSLPGPACAYVNLNICANGSEQGGVLLLENPKGDNRLDLLKLKSVVTSIFGVKNTELAVFHDETEIQNQTDLLSLSGKTLCVTAGSAPSLINSSSTLLCQYINLQLLNAKPQECLMGTVGTLLLENPLGQNGLTHQGLLYEAAKVFGLRSRKLKLFLNETQTQEITEDIPVKTLNMKTVYVSVLPTTADF
B3: sp¦Q8TEX9¦IPO4_HUMAN (protein, UniProt Q8TEX9 1-1081, looked up)
Importin-4: MESAGLEQLLRELLLPDTERIRRATEQLQIVLRAPAALPALCDLLASAADPQIRQFAAVLTRRRLNTRWRRLAAEQRESLKSLILTALQRETEHCVSLSLAQLSATIFRKEGLEAWPQLLQLLQHSTHSPHSPEREMGLLLLSVVVTSRPEAFQPHHRELLRLLNETLGEVGSPGLLFYSLRTLTTMAPYLSTEDVPLARMLVPKLIMAMQTLIPIDEAKACEALEALDELLESEVPVITPYLSEVLTFCLEVARNVALGNAIRIRILCCLTFLVKVKSKALLKNRLLPPLLHTLFPIVAAEPPPGQLDPEDQDSEEEELEIELMGETPKHFAVQVVDMLALHLPPEKLCPQLMPMLEEALRSESPYQRKAGLLVLAVLSDGAGDHIRQRLLPPLLQIVCKGLEDPSQVVRNAALFALGQFSENLQPHISSYSREVMPLLLAYLKSVPLGHTHHLAKACYALENFVENLGPKVQPYLPELMECMLQLLRNPSSPRAKELAVSALGAIATAAQASLLPYFPAIMEHLREFLLTGREDLQPVQIQSLETLGVLARAVGEPMRPLAEECCQLGLGLCDQVDDPDLRRCTYSLFAALSGLMGEGLAPHLEQITTLMLLSLRSTEGIVPQYDGSSSFLLFDDESDGEEEEELMDEDVEEEDDSEISGYSVENAFFDEKEDTCAAVGEISVNTSVAFLPYMESVFEEVFKLLECPHLNVRKAAHEALGQFCCALHKACQSCPSEPNTAALQAALARVVPSYMQAVNRERERQVVMAVLEALTGVLRSCGTLTLKPPGRLAELCGVLKAVLQRKTACQDTDEEEEEEDDDQAEYDAMLLEHAGEAIPALAAAAGGDSFAPFFAGFLPLLVCKTKQGCTVAEKSFAVGTLAETIQGLGAASAQFVSRLLPVLLSTAQEADPEVRSNAIFGMGVLAEHGGHPAQEHFPKLLGLLFPLLARERHDRVRDNICGALARLLMASPTRKPEPQVLAALLHALPLKEDLEEWVTIGRLFSFLYQSSPDQVIDVAPELLRICSLILADNKIPPDTKAALLLLLTFLAKQHTDSFQAALGSLPVDKAQELQAVLGLS
B4: sp¦Q92973¦TNPO1_HUMAN (protein, UniProt Q92973 1-898, looked up)
Transportin-1: MVWDRQTKMEYEWKPDEQGLQQILQLLKESQSPDTTIQRTVQQKLEQLNQYPDFNNYLIFVLTKLKSEDEPTRSLSGLILKNNVKAHFQNFPNGVTDFIKSECLNNIGDSSPLIRATVGILITTIASKGELQNWPDLLPKLCSLLDSEDYNTCEGAFGALQKICEDSAEILDSDVLDRPLNIMIPKFLQFFKHSSPKIRSHAVACVNQFIISRTQALMLHIDSFIENLFALAGDEEPEVRKNVCRALVMLLEVRMDRLLPHMHNIVEYMLQRTQDQDENVALEACEFWLTLAEQPICKDVLVRHLPKLIPVLVNGMKYSDIDIILLKGDVEEDETIPDSEQDIRPRFHRSRTVAQQHDEDGIEEEDDDDDEIDDDDTISDWNLRKCSAAALDVLANVYRDELLPHILPLLKELLFHHEWVVKESGILVLGAIAEGCMQGMIPYLPELIPHLIQCLSDKKALVRSITCWTLSRYAHWVVSQPPDTYLKPLMTELLKRILDSNKRVQEAACSAFATLEEEACTELVPYLAYILDTLVFAFSKYQHKNLLILYDAIGTLADSVGHHLNKPEYIQMLMPPLIQKWNMLKDEDKDLFPLLECLSSVATALQSGFLPYCEPVYQRCVNLVQKTLAQAMLNNAQPDQYEAPDKDFMIVALDLLSGLAEGLGGNIEQLVARSNILTLMYQCMQDKMPEVRQSSFALLGDLTKACFQHVKPCIADFMPILGTNLNPEFISVCNNATWAIGEISIQMGIEMQPYIPMVLHQLVEIINRPNTPKTLLENTAITIGRLGYVCPQEVAPMLQQFIRPWCTSLRNIRDNEEKDSAFRGICTMISVNPSGVIQDFIFFCDAVASWINPKDDLRDMFCKILHGFKNQVGDENWRRFSDQFPLPLKERLAAFYGV
B5: sp¦Q9Y2X3¦NOP58_HUMAN (protein, UniProt Q9Y2X3 1-529, looked up)
Nucleolar protein 58: MLVLFETSVGYAIFKVLNEKKLQEVDSLWKEFETPEKANKIVKLKHFEKFQDTAEALAAFTALMEGKINKQLKKVLKKIVKEAHEPLAVADAKLGGVIKEKLNLSCIHSPVVNELMRGIRSQMDGLIPGVEPREMAAMCLGLAHSLSRYRLKFSADKVDTMIVQAISLLDDLDKELNNYIMRCREWYGWHFPELGKIISDNLTYCKCLQKVGDRKNYASAKLSELLPEEVEAEVKAAAEISMGTEVSEEDICNILHLCTQVIEISEYRTQLYEYLQNRMMAIAPNVTVMVGELVGARLIAHAGSLLNLAKHAASTVQILGAEKALFRALKSRRDTPKYGLIYHASLVGQTSPKHKGKISRMLAAKTVLAIRYDAFGEDSSSAMGVENRAKLEARLRTLEDRGIRKISGTGKALAKTEKYEHKSEVKTYDPSGDSTLPTCSKKRKIEQVDKEDEITEKKAKKAKIKVKVEEEEEEKVAEEEETSVKKKKKRGKKKHIKEEPLSEEEPCTSTAIASPEKKKKKKKKRENED
B6: sp¦O95373¦IPO7_HUMAN (protein, UniProt O95373 1-1038, looked up)
Importin-7: MDPNTIIEALRGTMDPALREAAERQLNEAHKSLNFVSTLLQITMSEQLDLPVRQAGVIYLKNMITQYWPDRETAPGDISPYTIPEEDRHCIRENIVEAIIHSPELIRVQLTTCIHHIIKHDYPSRWTAIVDKIGFYLQSDNSACWLGILLCLYQLVKNYEYKKPEERSPLVAAMQHFLPVLKDRFIQLLSDQSDQSVLIQKQIFKIFYALVQYTLPLELINQQNLTEWIEILKTVVNRDVPNETLQVEEDDRPELPWWKCKKWALHILARLFERYGSPGNVSKEYNEFAEVFLKAFAVGVQQVLLKVLYQYKEKQYMAPRVLQQTLNYINQGVSHALTWKNLKPHIQGIIQDVIFPLMCYTDADEELWQEDPYEYIRMKFDVFEDFISPTTAAQTLLFTACSKRKEVLQKTMGFCYQILTEPNADPRKKDGALHMIGSLAEILLKKKIYKDQMEYMLQNHVFPLFSSELGYMRARACWVLHYFCEVKFKSDQNLQTALELTRRCLIDDREMPVKVEAAIALQVLISNQEKAKEYITPFIRPVMQALLHIIRETENDDLTNVIQKMICEYSEEVTPIAVEMTQHLAMTFNQVIQTGPDEEGSDDKAVTAMGILNTIDTLLSVVEDHKEITQQLEGICLQVIGTVLQQHVLEFYEEIFSLAHSLTCQQVSPQMWQLLPLVFEVFQQDGFDYFTDMMPLLHNYVTVDTDTLLSDTKYLEMIYSMCKKVLTGVAGEDAECHAAKLLEVIILQCKGRGIDQCIPLFVEAALERLTREVKTSELRTMCLQVAIAALYYNPHLLLNTLENLRFPNNVEPVTNHFITQWLNDVDCFLGLHDRKMCVLGLCALIDMEQIPQVLNQVSGQILPAFILLFNGLKRAYACHAEHENDSDDDDEAEDDDETEELGSDEDDIDEDGQEYLEILAKQAGEDGDDEDWEEDDAEETALEGYSTIIDDEDNPVDEYQIFKAIFQTIQNRNPVWYQALTHGLNEEQRKQLQDIATLADQRRAAHESKMIEKHGGYKFSAPVVPSSFNFGGPAPGMN

What follows are molecules tested on human HL60 cells (assay: SWATH-MS proteomics, differential protein representation, akirin2 KO vs WT HL60 cells). Conditions: akirin2 KO vs WT HL60 cells; sheet "Under-represented in KO".
Assay type: cell-based
Outline: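 Differential representation compares akirin2 KO with WT HL60 across three biological replicates, 5 µg digest each, acquired by data-independent SWATH on a 120-min gradient. Library built from combined IDA runs searched with Paragon; proteins accepted at 1% FDR, with total-area-sum normalization.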

Molecule | Fold Change | Log (Fold Change)
B1 | 0.6519 | -0.1858
B2 | 0.645 | -0.1904
B3 | 0.285 | -0.5451
B4 | 0.6517 | -0.186
B5 | 0.6507 | -0.1866
B6 | 0.28 | -0.5528
